Data from the PETadex activity labels.

Substrate: BHET
Conditions: 120 h

| Protein | plate clearing |
| --- | --- |
| unnamed (protein) MRKILLSVFTILSLNSYSQCDDVISSSITNPGIYEVATLSESDGVRNGADYYGSTIYYPINTNNFLGSIVIVPGFVSYEFSIQEWGPFLASHGIVCMTIGTNSIFEQPNQRATALLDAMVSLKEENSRNASPLNSKLDIDNIALGGWSMGGGGAQIAAKMDSSIKVVIALCPWLETGLISEEYLNHQAPILFISAEYDGIANASLHATPQYELSSETTPKLIYEVANGGHTVANYPTSGNGEVGLIALSWLKKYLLNEDCYCPILLESPETASMYMTNINCENSNLNAQEIECTEGWSIISTYVNPINTNFSNFIAPVVNNLIIAKDYIGNAYLPEWDYNGIGNIEQGQGYLIKMLNTMSLAVVGEQIIASENSISLNEGWNLFANFNTESTNSDLSFAALVETENVIIIKDYIGNAMLPEWEFNGLGDLQPGRGYQIKVTANCELQY | not clears the plate |
| unnamed (protein) MPMSLASASTLSGRAYSRSMRSRTRRRRARSRRRVPPVSARAETSKGSIGMPSSYGGARRGFSLGHPRGVRRGCVQATRRVRFLDWPRPAASRGAGDPSRGDTMTGTISSRIAMRAVACCIGLFAFTAGSASAQIGPDPTSASLNATAGSFAVSTSRVTLARGFGGGTIYYPTAAGSYGVVAISPGFTATESSIAWLGRRLATHGLVVITMNTNTTLDQPASRATQLMAALNHVVNSASSTVRSRVDSTRLAVAGHSMGGGGALIAAEDNPTLKAALPLTPWNLSTSFTQVRVPTLIVGSDGDTVAPVAAHARPFYASLPATTFKAYAELNAASHFTPNSTNTPIGRYGVTWMKRFVDADTRYSPFLCGAPHTAYATALVFDRYSQNCPY | not clears the plate |
| unnamed (protein) MKNITIRSTVRAAVAATLAATAVSGFAQTTAPTSASLNATAGPLAVSTSTVTAPRGFGGGTIYYPTTQARYGVIAISPGFTATETSLAWLGRRIATHGFVVITLNTLTTLDQPASRATQLMAALNHVVNSSPAAVKARIDTARLAVAGHSMGGGGALIAARDNPTLKASYSLTPWNTNSSFSTVRVPTMIVGADGDTIAPVGTHARPFYAALPGTTSKAYGELNNGTHFSPNSTNTPIGRYGVAWMKRFLDADTRYSTFLCGAEHTSYATALVFDRYNQNCPY | not clears the plate |
| unnamed (protein) MKKSIFSKLVVSAGALLLSSTLYASGGGSGGGGSVPPVGNNPCGPDPSSSALSRTGSSGPFSVATKNVSSFSASGFGGGTIHYPTNSNCGRMGGIAVVPGYVSYESSIEWWGPRLASWGFVVITINTNSIYDQPNSRADQLSAALDHIIDDSTVGSLVDPDRLGAIGWSMGGGGSLKLATDRARVRAIIPQAPWYSGSYGSMDTPAFMIACENDAIAPTSSHVDDFYRDASGPKMKIEVNNGSHYCANSGYNESLLGKPGIAWMKRYIDGDTRYNQFLCGNESYGSSYEVSDYDYASCP | not clears the plate |
| unnamed (protein) MSTGTRVPHAGRAATAPVEGPRQRGRKMQHSLSTSRSRKRVTGILASLAVAVGVGIAAGPVAHGADNPHERGPDPSESSIEAVRGSYSISDRNVSSWVSGFGGGTIYYPTTTSDGDFGAVVISPGYTGTESTISWLGPRLASQGFVVLTMATNSIYDQPDSRARQLQAALDYLTDDSPVADRIDPDRLALMGHSMGGGGTLRAVDDNPDIKAAIPMTPWHLKKDWSSVTTPTLIFGAEDDSVARHETHAEPFYESFDRDLPKAYLELDGASHFAPNYSNTTIAKYSISWLKRFVDDDERYTQFLCPGPSTGWFSDVEKYESSCPL | not clears the plate |
| unnamed (protein) MKTSVTNFAKVTLTVATLLASAIASAQYTKGPDPTVAGLERDGSFTVRTTTVSSLAAVGFGKGTIYYPSAAGSYGVIAVSPGFTAYQSSISWIGSRLASHGFVVITIDTNTTSDQPDSRGSQLKAALDKVVSLSKSSSNVLYNKVDASRLAVAGHSMGGGGTLSAARDNPSYKAAVPLAPWHTTKSWPTLTVPTLIIGGEGDTVAGVSSHSIPFYTSISNSTKKAYMELNGEDHFFPQDATQYPLVGKYMISWFKRFVDNDTRYSAFICGAPHQTQIAVASKISDYRSNC | not clears the plate |
| unnamed (protein) MATMPSGTTALLSVTFFCTTPPSALSLKRHRYPSFRFRSPISVFLSRTHDYMQCRAPWGCMYSLGTPRGSVASRRTINEFLVGGVTQMNTKVQGSSASSAPKVGYPAKSLLAAGILLASFAANADVLFQEDFNAGLGQFTSGGDVTVTSSGARMQGCYGCTDGSITSGAISTVGFNTISLTFTRSTTGLDSGEAGIAEFSTNGSTWTTLESVRTASGARTVALPSTAAGQSALRIRFRINASLSSEYYTVDGVRVEGTPDGTPCTDCPPTGETAIGPDPTTATLEATAGSFTVATINVPSSVTGYGGGVIYYPTAAGTYGVVAMCPGYTASASSLAWWGTRLASWGLIVHIIDTNSTGDFPASRATQLIAALDYVKALNTSSTSPLRGKVANREAVSGHSMGGGGTLIAANNNASRTTLRAAFAMTPWSSSPDSFPSIRAATFVLGCESDNVASVSSHAYPFYVSIPSTVKKAYGEINNADHYCPTQSNPYKAQLGKYGVAWMKRHLEGDTRFDPWLCGAPHQQVVSGTFWSRYLSTCPY | not clears the plate |
